Experimental findings from PMC6426973, “Oligomeric self-association contributes to E2A-PBX1-mediated oncogenesis” are described below.

The data set has as its target T1, E2A-PBX1 ΔPBC-B (MBP fusion) (UniProt P15923 1-483+P40424:232-430, internal_change).
T1 sequence: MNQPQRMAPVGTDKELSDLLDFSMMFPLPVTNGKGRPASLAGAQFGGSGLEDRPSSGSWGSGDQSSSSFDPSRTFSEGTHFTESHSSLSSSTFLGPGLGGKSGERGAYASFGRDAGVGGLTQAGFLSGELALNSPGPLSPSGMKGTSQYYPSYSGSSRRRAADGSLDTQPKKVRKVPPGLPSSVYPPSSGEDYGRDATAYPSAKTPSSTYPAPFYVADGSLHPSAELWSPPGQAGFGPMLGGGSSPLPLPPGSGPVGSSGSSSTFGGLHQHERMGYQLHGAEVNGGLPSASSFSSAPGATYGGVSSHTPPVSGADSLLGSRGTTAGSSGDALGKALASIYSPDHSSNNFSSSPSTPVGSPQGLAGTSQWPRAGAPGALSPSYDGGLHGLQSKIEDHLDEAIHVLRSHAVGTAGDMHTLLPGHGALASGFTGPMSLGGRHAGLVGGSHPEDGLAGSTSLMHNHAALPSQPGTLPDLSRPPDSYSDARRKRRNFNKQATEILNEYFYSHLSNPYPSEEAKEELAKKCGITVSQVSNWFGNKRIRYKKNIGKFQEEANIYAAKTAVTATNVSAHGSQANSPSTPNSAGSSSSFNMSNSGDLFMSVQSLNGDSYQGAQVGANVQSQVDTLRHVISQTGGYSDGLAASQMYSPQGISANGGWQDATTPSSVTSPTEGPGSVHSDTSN
Briefly: EMSA; LightShift Chemiluminescent EMSA kit (manufacturer's conditions), room temperature 20 min, 5% TBE gel in 0.5X TBE; salt and pH not stated. The note with it: protein: recombinant; tags: MBP; label: biotin (end label); blunt.

B1: PBX1 consensus site oligonucleotide (dsDNA)
DNA 1: TGATTGATTGATTGAT
DNA 2: ATCAATCAATCAATCA
For B1, the binding result was “no binding”.
